These results are taken from US20250340660A1 (published 2025).

Numbering of substitutions follows the chain as printed.

In experiment [1] the target is T1, human CD30L expressed on cells (human, UniProt P32971 1-234).
T1 construct: whole, on cells; The assay field of each row tells which cells carried it; also called huCD30L; B16-huCD30L cells
T1 sequence (looked up): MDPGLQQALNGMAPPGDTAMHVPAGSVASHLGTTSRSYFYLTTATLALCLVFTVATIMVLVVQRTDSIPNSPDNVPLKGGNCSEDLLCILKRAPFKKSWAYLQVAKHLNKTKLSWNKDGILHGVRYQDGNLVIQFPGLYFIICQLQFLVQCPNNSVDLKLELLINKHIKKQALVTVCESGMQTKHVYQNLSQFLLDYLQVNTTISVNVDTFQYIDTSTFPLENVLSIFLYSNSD
In words: flow cytometry, labelled antibody on PMA/ionomycin-stimulated primary lymphocytes, Patient 1 (CD, #04-021). On the technique in general: Flow cytometry measures light scatter and fluorescence of single cells or particles in a stream.
Source text: (§1) Peripheral blood mononuclear cells (PBMCs) were isolated from freshly collected whole blood from Ulcerative Colitis (UC) and Crohn's Disease (CD) patients, by conventional density gradient centrifugation. […] After washing to remove unbound antibodies, the cells were fixed in a paraformaldehyde solution and analyzed by flow cytometry to quantify cell surface antibody binding.

In experiment [2] the target is T1, human CD30L expressed on cells. In words: flow cytometry, labelled antibody on PMA/ionomycin-stimulated primary lymphocytes, Patient 2 (UC, #03-041).
Source text: as §1
Experiment [3] has the same target. In words: flow cytometry, labelled antibody on PMA/ionomycin-stimulated primary lymphocytes, Patient 3 (UC, #02-180).
Source text: as §1
For experiment [4] the target is unchanged. As to the kind of experiment: flow cytometry, labelled antibody on PMA/ionomycin-stimulated primary lymphocytes, Patient 4 (CD, #01-051).
Source text: as §1
The target of experiment [5] is T2, mouse CD30L (mouse, UniProt P32972 68-239, limits assumed).
T2 construct: also called rmCD30L
T2 sequence (looked up): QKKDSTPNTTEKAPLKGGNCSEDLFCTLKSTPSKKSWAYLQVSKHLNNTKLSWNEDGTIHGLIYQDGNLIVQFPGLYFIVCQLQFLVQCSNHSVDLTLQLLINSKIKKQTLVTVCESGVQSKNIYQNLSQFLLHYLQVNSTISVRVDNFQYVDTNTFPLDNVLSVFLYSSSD
As to the kind of experiment: screening of a rat campaign with mouse CD30L antigen.

Experiment [6] deals with T3, human CD30L expressed on cells (B16-huCD30L; HEK293 cells over-expressing TNFSF8) (human, UniProt P32971 1-234).
T3 sequence: T1 sequence (looked up)
In words: cell-based or functional assay.

The target of experiment [7] is T4, cynomolgus CD30L expressed on HEK293 cells (cynomolgus, UniProt A0A7N9CVX7 1-234).
T4 sequence: T1 sequence (looked up) with A19T, M20T, G32E, L41F, V75I, K78R, I204V, I227V
As to the kind of experiment: cell-based or functional assay.

Experiment [8] concerns the target T3, human CD30L expressed on cells …. In words: flow cytometry, blocking of recombinant CD30-Fc binding to CD30L-expressing cells; reference Ref1.
Experiment [9] deals with T4, cynomolgus CD30L expressed on HEK293 …. The experiment is described as above.
In experiment [10] the target is T5, recombinant human CD30L protein (human, UniProt P32971 63-234, limits assumed).
T5 construct: Used for ELISA, BLI, Carterra, KinExA; also called rhCD30L; purified human CD30L
T5 sequence (looked up): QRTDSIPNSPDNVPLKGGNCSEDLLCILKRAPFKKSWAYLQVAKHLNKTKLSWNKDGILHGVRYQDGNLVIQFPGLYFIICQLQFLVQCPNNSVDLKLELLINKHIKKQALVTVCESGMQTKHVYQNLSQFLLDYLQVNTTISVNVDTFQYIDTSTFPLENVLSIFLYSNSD
In words: KinExA, Fab in solution; reference: Fab of Ref1. (A kinetic exclusion assay measures how much of one partner remains free in solution.)
Source text: A KD analysis requires immobilization of one interaction partner to a solid phase which is then used as a probe to capture the other interaction partner, the constant binding partner (Fab). […] The solutions are then briefly exposed to the solid phase and a portion of free Fab is captured. The captured Fab is then labeled with a fluorescent secondary molecule. The short contact time with the solid phase is less than the time needed for dissociation of the pre-formed complex in solution, thus competition between the solution and the solid phase titrated binding partner is kinetically excluded.

In experiment [11] the target is T6, recombinant human CD30L (human, UniProt P32971 63-234, limits assumed).
T6 construct: also called rhCD30L; TNFSF8
T6 sequence (looked up): T5 sequence (looked up)
In words: biosensor: antibody captured, CD30L bound, competitor rhCD30 added; signal of CD30 association (over 0.15 = non-blocking).
Procedure: Briefly, individual anti-human biosensors were loaded with purified IgG (normalized to 10 μg/mL) and a baseline was measured for each biosensor. Biosensors were saturated with biotin and with polyclonal huIgG and a baseline was measured. […] Biosensors were moved to buffer wells to measure the dissociation rate.

B1: Clone 1, fluorescently labeled (format not stated in Table 7) (antibody, V domains shown)
VH: QVQLQESGPGLVKPSETLSLTCTVSGGSISGYYWSWIRQPPVKGLEWIGYIFYSGYTKYNPSLKSRVTISVDTSKNQFSLKLSSVTAADTAVYYCARDRWDFDYWGQGALVTVSS
VL: AIQMTQSPSYLSASVGDRVTIACRASQGIRNNLGWYQQKPGKAPKLLIYAESSLQSGVPSRFSGSGSGTDFTLTISSLQPEDFATYYCLQDFNYPYTFGQGTKLEIK
modifications: fluorescent label (site not stated)
notes: The variable domains are those of parental clone 1
Usually EC50 stands for the concentration at which the effect is half-maximal. Higher therefore signals a need for much substance. Consider B1, for which the EC50 was determined as 7.45 nM in [1], 5.43 nM in experiment [2], 5.57 nM in experiment [3] and 4.53 nM in experiment [4].

B2: clone 111, function blocking rat anti-mouse CD30L antibody (antibody, mouse IgG2a, V domains shown)
VH: EVKLQQSGDELVRPGASVKMSCKASGYTFTDYAMHWVKQSPGQGLEWIGSIIPLIDTTSYNQKFKGKATLTADKSSNTAYMELSRLTSEDSAVYYCARLGSRYLEGFDYWGQGVMVTVSS
VL: DIQMTQSPSSMSASLGDTVTINCLASQDIGNYLSWYQQKPGKSPKLMIYGATNLEDGVPSRFSGSGSGSDYSLTINSLGYDDEGIYHCHQYYEYPLTFGSGTKLEIK
notes: Rat antibody as found in the screen
With B2, the binding result in experiment [5] is “binds”.

B3: anti-CD30L antibody Clone 2 (parental) (antibody, V domains shown)
VH: EVQLVESGGGLVQPGRSLRLSCAASGFNFDDYAMHWVRQAPGKGLEWVSGISWRSGNIGYAGSVKGRFTISRDNAKNSLYLQMNSLRPEDSALYYCAKDKGIGFNWNYEGFDYWGQGTLVTVSS
VL: DIQMTQSPSSLSASVGDRVTITCRASQGISNHLAWFQQKPGKAPKSLIYAASSLQSGVPSKFSGSGSGTDFTLTISSLQPEDFATYYCQQYVTYPLTFGGGTKVEIK
Consider B3, for which the “fold better IC50 than Ref1, IL-8 release dual cell assay” value came out at 2 fold in [6] and 2.6 fold in [7].

B4: Clone 2, fluorescently labeled (format not stated in Table 7) (antibody, V domains shown)
VH: B3 VH
VL: B3 VL
modifications: fluorescent label (site not stated)
notes: The variable domains are those of parental clone 2
For the molecule B4, the EC50 came out at 2.4 nM in experiment [1], 1.55 nM in [2], 1.71 nM in experiment [3] and 1.72 nM in [4].

B5: anti-CD30L antibody clone 2 germlined (antibody, V domains shown)
VH: B3 VH with G62D, P88A, S91T
VL: B3 VL with K61R
notes: also called germlined clone 2
Take B5: the results for the “fold better IC50 than Ref1” value in experiment [8] and in [9] were 2.74 fold and 2.13 fold, respectively.

B6: Fab of anti-CD30L clone 2 germlined (Fab, V domains shown)
VH: B3 VH with G62D, P88A, S91T
VL: B3 VL with K61R
notes: Fab; also called germlined-clone-2 Fab; germlined-clone-2-Fab
Take B6: the “fold KD against the reference 1 anti-CD30L” value in experiment [10] amounted to 4.2 fold.

B7: anti-CD30L antibody clone 65 (antibody, V domains shown)
VH: EVQLVESGGGLVQPGGSLKLSCAASGFTFSNYAMTWVRQAPGKGLEWVSAISGYGGSTYYAASVKGRFTISRDNSKNTLFLQMNSLRAEDTAVYYCAKDHDYYAFDYWGQGTLVPVSS
VL: not shown
notes: purified recombinant IgG, humanized mouse strain #1; also called Clone ID 65
As to B7, in experiment [11], the “rhCD30L:rhCD30 Blocking” value amounted to 0.0522 relative units.
